Reference: article PMC12609076

Key:
[1] = target: Bradyrhizobium japonicum SemiSWEET (Bradyrhizobium japonicum); experiment: not stated; BjSemiSWEET in liposomes (fig. S8B); method not given
[2] = target: Bradyrhizobium japonicum SemiSWEET (Bradyrhizobium japonicum); experiment: not stated; BjSemiSWEET in detergent (fig. S8A); method not given

Question: For “Bradyrhizobium japonicum SemiSWEET (natural protein)”, which stoichiometry N [1] is on record?
Answer: Its stoichiometry N is 2.

Question: What about the stoichiometry N [2] of the same substance?
Answer: Its stoichiometry N is 2.
